{
  "source": "patent US20080138339A1",
  "about": "(DONGGNAN HAOFA BIOTECHNOLOGY DEVELOPMENTAL, published 2008)",
  "binders": {"B1": {"name": "anti-human ovarian carcinoma x anti-human CD3 bispecific antibody (bispecific antibody, not shown: a dimerising Fc or GST)", "chain": "EVQLQESGPEVKKPGETVRISCKASGYTFTTAGMQWVQKMPGKGLKWLGWINTNSEVPKYAEDFRGRFAFSLETSASTAYLQISNLKNEDTATFFCARSFTWGTMDYWGQGTTVTVSSGGGGSGGGGSGGGGSDVVMTQTPLSLPVSLGDQASISCRSSQTLVHSIGNTYLHWYLQKPGQSPKLLIYKVSNRFSGVPDRFSGSGSGTDFTLKISRVEAEDLGVYFCSQSTHVPYTFGGGTKLELKEIVLTQSPATLSLSPGERATLSCSASSSVSYMNWYQQKPGQAPRRWIYDTSKLASGIPARFSGSGSGTDFTLTISSLEPEDFATYYCQQWSSNPFTFGGGTKVEIKRGGGGSGGGGSGGGGSQVQLVQSGAEVRKPGASVRVSCKASGYTFTRYTMHWVRQAPGHGLEWIGYINPSRGYTNYNQKFKDRVTMTTDKSFSTAIMDLRSLRSDDSAVYYCARYYDDHYCLDYWGQGTTVTVSSHHHHHH", "notes": "Single polypeptide expressed from pAMAB in E. coli G1724, about 52 kDa; Order: anti-ovarian scFv, interlinker, anti-CD3 reshaped scFv, 6 His; also called BsAb; ScBsAb"}},
  "target": "T1, OC183B2 (antigens associated with ovarian carcinoma) (human)",
  "T1 construct": "It is treated here as a protein antigen; also called HRP-OC183B2",
  "experiment": "direct ELISA; plate coated with bispecific antibody, HRP-OC183B2 added, read at 492 nm",
  "description": "The antigen-binding activity of anti-ovarian carcinoma scFv in bispecific antibody was assayed by direct ELISA. ELISA plate was coated with bispecific antibody at 4° C. overnight. Wells coated with anti-ovarian monoclonal antibody were set as positive control. Plate was washed 3 times with PBST (PBS-0.05% Tween 20) for 5 min. HRP-OC183B2 diluted in 3% goat serum was added and incubate at 37° C. for 1 h. After washing plate 3 times with PBST, the substrate of HRP was added and incubated for 20 min at room temperature in the dark. 2M H2SO4 was added to stop the reaction. All the values of OD492 of bispecific antibody were 2.5 times higher than those of negative control and changed with gradient among the different dilution of bispecific antibody.",
  "data": [
    {"binder": "B1", "values": [
      {"measurement": "OD492 relative to negative control", "value": 2.5, "unit": "times"}
    ]}
  ]
}
